Assay results reported in patent US20200115460A1.

What was measured:
[1] = biological target: IGF-I receptor (cell line of the PathHunter IGF1R Functional Assay, DiscoverX) (UniProt P08069); assay: cell-based or functional assay
[2] = biological target: insulin receptor (cell line of the PathHunter INSR Functional Assay, DiscoverX) (UniProt P06213); assay: cell-based or functional assay

activation of the IGF-I receptor (PathHunter, solvent group = 100%) at 0.5 nM [1] [%]	activation of the IGF-I receptor (PathHunter, solvent group = 100%) at 5 nM [1] [%]	activation of the IGF-I receptor (PathHunter, solvent group = 100%) at 50 nM [1] [%]	activation of the insulin receptor (PathHunter, solvent group = 100%) at 5 nM [2] [%]	activation of the insulin receptor (PathHunter, solvent group = 100%) at 50 nM [2] [%]	Substance
184	1240	4620	–	–	Insulin (ligand)
–	109	109	104	111	FLAG M2 antibody
